# Molecular target: trimeric post-fusion hMPV B2 F protein (trypsinized) (human metapneumovirus (hMPV), subgroup B2 | T4 bacteriophage)
# Assay: SEC
substance,measurement,value
trimeric post-fusion hMPV B2 F protein (trypsinized) (natural protein),stoichiometry N,3

# From publication doi:10.1101/2021.05.19.444868
